The values below come from US20250145733A1 (University of California, published 2025).

Changes are numbered by the printed parent chain.

In experiment [1] the target is human ALPPL2 on tumor cells (M28, SKOV3, AsPC1) (human) (UniProt P10696). Nature of the experiment: apparent KD, flow cytometry, Fab on living M28 cells. (Flow cytometry measures light scatter and fluorescence of single cells or particles in a stream.)
Experiment [2] deals with T1, human ALPPL2 on tumor cells (M28, SKOV3, AsPC1) (human, UniProt P10696 20-503).
T1 construct: whole, on cells; also called ALPPL2 expressing tumor cells; M28 cells
The description is as above. As to the method: (§1) FIG. 2. Binding of FYIA, FYIA_germ, and FYIA_germopt Fabs to living M28 cells. M28 cells were incubated with Fabs for 1 h at RT and binding was analyzed by flow cytometry.
FIG. 4. Additional Fabs (FYIA_germ_SY and FYIA_germ_6-6) were also studied along with FYIA, FYIA_germ, and FYIA_germopt Fabs for binding to living M28 cells. M28 cells were incubated with Fabs for 1 h at RT and binding was analyzed by flow cytometry.

For experiment [3], the target named is T2, human ALPPL2-Fc (human, UniProt P10696 20-503).
T2 construct: also called ALPG; not shown: Fc part not described
Nature of the experiment: biolayer interferometry, tips loaded with Fab, 5 nM human ALPPL2-Fc as analyte. Here is the method:
FIG. 1. Biolayer interferometry (BLI) measurements of the affinity of FYIA, FYIA_germ, FYIA_germ_6-6, and FYIA_germopt (aka SYLY) Fabs for human ALPPL2. Tips were loaded with Fabs, followed by an association step with 5 nM human ALPPL2-Fc then a dissociation step.

In experiment [4] the target is T3, human ALPI on HEK293 cells (human, UniProt P09923 20-503).
T3 construct: whole, on cells; also called HEK293-ALPI cells
T3 sequence (looked up): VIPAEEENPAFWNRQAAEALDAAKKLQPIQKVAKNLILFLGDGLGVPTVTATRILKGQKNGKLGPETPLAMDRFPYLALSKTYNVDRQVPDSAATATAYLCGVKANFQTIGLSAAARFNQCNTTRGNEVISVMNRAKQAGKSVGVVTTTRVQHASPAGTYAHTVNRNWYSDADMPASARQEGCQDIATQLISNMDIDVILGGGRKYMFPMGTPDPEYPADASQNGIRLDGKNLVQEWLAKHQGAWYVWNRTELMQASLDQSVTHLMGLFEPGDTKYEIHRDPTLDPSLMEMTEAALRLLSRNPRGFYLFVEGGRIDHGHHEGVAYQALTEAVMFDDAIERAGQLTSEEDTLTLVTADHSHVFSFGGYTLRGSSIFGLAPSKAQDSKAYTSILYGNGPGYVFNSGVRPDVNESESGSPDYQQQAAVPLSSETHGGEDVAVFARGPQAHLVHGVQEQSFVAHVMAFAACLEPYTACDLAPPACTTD
Nature of the experiment: flow cytometry on HEK293 cells stably transfected with human ALPI, 1 h at RT. Here is the method:
FIG. 3. Binding of FYIA, FYIA_germ, and FYIA_germopt Fabs to HEK293 cells stably transfected with human ALPI. HEK293-ALPI cells were incubated with Fabs for 1 h at RT and binding was analyzed by flow cytometry. No detectable binding was found. An ALPI-binding Fab, M25AD, was included in the study as a positive control.

In experiment [5] the target is T1, human ALPPL2 on tumor cells (M28, …). The experiment is described as follows: cell binding study, monovalent Fab on M28 cells, flow cytometry. As to the method: as §1
Experiment [6] shares this target. The experiment is described as follows: cell-based or functional assay.
The target in the next experiment is ALPP on HEK293 cells (UniProt P05187 23-506, limits assumed). The experiment is described as follows: cell-based or functional assay.
In experiment [7] the target is T1, human ALPPL2 on tumor cells (M28, …). The experiment is described as follows: apparent KD, flow cytometry on living SKOV3 cells. Here is the method: FIG. 16. Binding of the SYLY-based bispecific (DSDbody) to living SKOV3 cells. SKOV3 cells were incubated with Fabs for 1 h at RT and binding was analyzed by flow cytometry. […] There is no binding by the control bispecific YSC10×CD3 DSDbody that is built on a non-binding isotype control antibody YSC10.
In addition to mesothelioma cells, binding of the SYLY-based bispecific ALPPL2×CD3 DSDbody was also studied on the ovarian cancer cell line SKOV3. […] No binding was detected by the control bispecific YSC10×CD3 that is built on a non-binding isotype control antibody YSC10. For comparison, a reference DSDbody constructed from the parental FYIA was also studied on SKOV3 cells using flow cytometry.

The target of experiment [8] is T2, human ALPPL2-Fc. Nature of the experiment: biolayer interferometry, tips loaded with human ALPPL2-Fc, 100 nM DSDbody as analyte. As to the method:
(§2) FIG. 12. Binding of SYLY×CD3 DSDbody to human ALPP2 and ALPI measured by biolayer interferometry. Tips were loaded with either human ALPPL2-Fc or human ALPI-Fc, followed by an association step with 100 nM SYLY×CD3 DSDbody and then a dissociation step. Calculated affinites are shown in the graph. ND: not determined.
(§3) The DSDbody was also evaluated by biolayer interferometry for cross-species binding to both human and cynomolgus monkey CD3 epsilon chains.
(BLI is a label-free optical method that tracks binding on a fibre tip over time.)

Experiment [9] addresses T4, human CD3 epsilon (human, UniProt P07766 23-126). The experiment is described as follows: biolayer interferometry, tips loaded with human CD3 epsilon, 100 nM DSDbody as analyte. Here is the method:
(§4) FIG. 13. Binding of SYLY×CD3 DSDbody to human and cynomolgus monkey CD3 epsilon measured by biolayer interferometry. Tips were loaded with either human or cynomolgus monkey CD3 epsilon, followed by an association step with 100 nM SYLY×CD3 DSDbody and then a dissociation step.
as §3

The target of experiment [10] is T1, human ALPPL2 on tumor cells (M28, …). Nature of the experiment: apparent KD, flow cytometry on living M28 cells; M28 mesothelioma cells, flow cytometry.
Another experiment has as its target T5, human ALPI-Fc (human, UniProt P09923 20-503).
T5 construct: not shown: Fc part not described
T5 sequence (looked up): T3 sequence (looked up)
The experiment is described as follows: BLI; tips loaded with human ALPI-Fc, association with 100 nM SYLYxCD3 DSDbody, then dissociation. As to the method: as §2, §3

Experiment [11] has as its target T2, human ALPPL2-Fc. The experiment is described as follows: BLI; tips loaded with human ALPPL2-Fc, association with 100 nM SYLYxCD3 DSDbody, then dissociation. Here is the method:
as §2, §3

Experiment [12] addresses T4, human CD3 epsilon. The experiment is described as follows: BLI; tips loaded with human CD3 epsilon, association with 100 nM SYLYxCD3 DSDbody, then dissociation. As to the method:
as §4, §3

Experiment [13] concerns the target T1, human ALPPL2 on tumor cells (M28, …). Nature of the experiment: flow cytometry on AsPC1 cells, anti-hexahistidine detection, curve fit of MFI; AsPC1 pancreatic cancer cells, flow cytometry. Here is the method: The bispecific (ALPPL2×CD3) SYLY DSDBody was incubated with AsPC1 cells at room temperature for 1 h, washed and further incubated with anti-tag (hexahistidine (SEQ ID NO: 102)) antibodies for detection by flow cytometry. […] See, FIG. 24.

The target in experiment [14] is T6, cynomolgus monkey CD3 epsilon (cynomolgus monkey, UniProt Q95LI5 22-117).
T6 sequence (looked up): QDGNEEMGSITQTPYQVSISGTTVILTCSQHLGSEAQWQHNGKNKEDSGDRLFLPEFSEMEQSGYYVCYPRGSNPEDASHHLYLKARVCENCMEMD
Nature of the experiment: BLI; tips loaded with cynomolgus monkey CD3 epsilon, association with 100 nM SYLYxCD3 DSDbody, then dissociation. Here is the method: as §4, §3

T2 sequence (P10696 20-503): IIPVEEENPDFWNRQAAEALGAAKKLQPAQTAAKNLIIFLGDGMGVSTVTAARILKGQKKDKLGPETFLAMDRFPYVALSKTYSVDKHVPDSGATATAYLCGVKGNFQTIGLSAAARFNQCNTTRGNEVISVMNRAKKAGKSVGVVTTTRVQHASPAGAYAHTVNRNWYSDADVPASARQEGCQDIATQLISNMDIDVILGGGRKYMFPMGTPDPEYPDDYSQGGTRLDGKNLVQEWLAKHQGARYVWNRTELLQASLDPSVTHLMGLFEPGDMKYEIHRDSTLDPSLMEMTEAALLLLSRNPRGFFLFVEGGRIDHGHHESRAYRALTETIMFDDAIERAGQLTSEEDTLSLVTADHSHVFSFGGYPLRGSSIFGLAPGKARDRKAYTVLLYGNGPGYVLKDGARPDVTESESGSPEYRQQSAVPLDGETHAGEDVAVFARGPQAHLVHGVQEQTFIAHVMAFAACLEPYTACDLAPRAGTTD
T1 sequence (P10696 20-503): as above
T4 sequence (P07766 23-126 limits assumed): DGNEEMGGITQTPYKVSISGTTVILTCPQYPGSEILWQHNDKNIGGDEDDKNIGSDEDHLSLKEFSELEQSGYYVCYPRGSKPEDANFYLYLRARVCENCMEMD
ALPP on HEK293 cells, sequence (P05187 23-506 limits assumed): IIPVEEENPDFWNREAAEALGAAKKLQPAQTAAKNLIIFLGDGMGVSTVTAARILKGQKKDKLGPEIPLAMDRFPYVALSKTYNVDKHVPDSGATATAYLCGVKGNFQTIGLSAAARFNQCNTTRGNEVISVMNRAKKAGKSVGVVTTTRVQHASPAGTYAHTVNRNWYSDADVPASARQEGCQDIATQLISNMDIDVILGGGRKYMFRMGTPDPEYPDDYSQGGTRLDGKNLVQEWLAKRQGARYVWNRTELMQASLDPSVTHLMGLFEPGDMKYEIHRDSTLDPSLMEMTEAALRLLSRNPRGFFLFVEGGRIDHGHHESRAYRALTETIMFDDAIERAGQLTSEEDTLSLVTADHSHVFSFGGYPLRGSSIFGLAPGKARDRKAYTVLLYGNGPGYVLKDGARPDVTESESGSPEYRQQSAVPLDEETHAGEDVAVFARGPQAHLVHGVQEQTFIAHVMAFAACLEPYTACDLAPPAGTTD
human ALPPL2 on tumor cells (M28, SKOV3, AsPC1) (human), sequence (P10696 20-503): as the sequence (P10696 20-503) above

B1: FYIA_germ_SY Fab (Fab, part only; not given: light variable domain, not tied by name, V domains shown, part only)
VH: EVQLVESGGGLVQPGGSLRLSCAASGFTFSAYAMHWVRQAPGKGLEWVAVISYEGYNAYYADSVKGRFTISRDNSKNTLYLQMNSLRAEDTAVYYCAKEGDYSRWAYDLWGRGTLVTVSS
As to B1, the Kd in experiment [1] amounted to 1.27 nM.

B2: FYIA_germ Fab (Fab, V domains shown)
VH: B1 VH with A31S, E54D, Y56S, A58K, Y102S, A106S
VL: QSALTQPASVSGSPGQSITISCTGTSSDVGGYNYVSWYQQHPGKAPKLMIYDVTNRPSGVSNRFSGSKSGNTASLTISGLQAEDEADYYCSSYTIASTLVVFGGGTKLTVL
notes: Tested as monovalent Fab
Consider B2, for which the Kd in experiment [2] came to 69.4 nM; with human ALPPL2-Fc [3], 13 nM. In addition, the binding result in experiment [4] was “no binding (tested: 10000 nM)”.

B3: FYIA_germopt Fab (Fab, V domains shown)
VH: B1 VH with L109Y
VL: B2 VL with R56Y, I95V, S97T
notes: Tested as monovalent Fab; also called SYLY
With B3, the Kd was found to be 0.967 nM in experiment [2] and 0.19 nM with human ALPPL2-Fc [3]. Also, the “fold improvement over the parental FYIA” value in [5] is more than 30 fold. In experiment [4], the binding result is “no binding (tested: 10000 nM)”.

B4: SYLY-based bispecific ALPPL2×CD3 DSDbody (bispecific antibody)
chain 1: EVQLVESGGGLVQPGGSLRLSCAASGFTFNTYAMNWVRQAPGKGLEWVGRIRSKYNNYATYYADSVKDRFTISRDDSKNSLYLQMNSLTACDTAVYYCVRHGNFGNSYVSWFAYWGQGTLVTVSSGGGGSQSALTQPASVSGSPGQSITISCTGTSSDVGGYNYVSWYQQHPGKAPKLMIYDVTYRPSGVSNRFSGSKSGNTASLTISGLQAEDEADYYCSSYTVATTLVVFGGGTKLTVLASTKGPSVFPLAPSSKSTSGGTAALGCLVKDYFPEPVTVSWNSGALTSGVHTFPAVLQSSGLYSLSSVVTVPSSSLGTQTYICNVNHKPSNTKVDKKVEPKSCHHHHHH
chain 2: EVQLVESGGGLVQPGGSLRLSCAASGFTFSAYAMHWVRQAPGKGLEWVAVISYEGYNAYYADSVKGRFTISRDNSKNTLYLQMNSLTACDTAVYYCAKEGDYSRWAYDYWGRGTLVTVSSGGGGSDIQMTQSPSSLSASVGDRVTITCRSSTGAVTTSNYANWVQQKPGKAPKGLIGGTNKRAPGVPSRFSGSLIGDKATLTISSLQPEDFATYYCALWYSNLWVFGQGTKVEIKRTVAAPSVFIFPPSDEQLKSGTASVVCLLNNFYPREAKVQWKVDNALQSGNSQESVTEQDSKDSTYSLSSTLTLSKADYEKHKVYACEVTHQGLSSPVTKSFNRGEC
notes: Dually stabilized diabody: inter-chain disulfide link and CH1/CL pairing; Anti-CD3 arm is humanized SP34 (hSP34k2); also called SYLY×CD3 DSDbody; SYLY DSDbody
B4: the “EC50 of killing of SKOV3 cells with human PBMC (E:T 10:1, 96h, Calcein AM)” value in experiment [6] was 0.0003 nM. The “EC50 of killing of HEK293-ALPP cells with human PBMC (E:T 10:1, 72h, Calcein AM)” value in the experiment with ALPP on HEK293 cells is 0.0085 nM. In addition, the Kd was 0.19 nM in experiment [7]; approximately 0.2 nM with human ALPPL2-Fc [8]; 20 nM with human CD3 epsilon [9]; 2.4 nM in experiment [10]; 0.2 nM in the experiment with human ALPPL2-Fc [11]; 25 nM with human CD3 epsilon [12]. Besides, the Kd came out at 4.35 nM in experiment [13] and 18 nM in experiment [14]. Further, in the experiment with human ALPI-Fc, the binding result is “no binding (tested: 100 nM)”.
